Numbering of substitutions follows the chain as printed. Values joined by “and” are separate entries in the source; they are usually repeats but may differ in a detail not shown here. Identical values can stand only once. Like-named read-outs stand apart in the source and are kept apart here. One block for each binder: values may come before it.
Experiments:
Test in all cases: ELISA
[1] = target: T1, recombinant human GM-CSF protein (human, UniProt P04141 18-144)
[2] = target: T1, recombinant human GM-CSF protein; remark: listed apart in the source
[3] = target: T1, recombinant human GM-CSF protein; remark: listed apart in the source

T1 sequence (P04141 18-144): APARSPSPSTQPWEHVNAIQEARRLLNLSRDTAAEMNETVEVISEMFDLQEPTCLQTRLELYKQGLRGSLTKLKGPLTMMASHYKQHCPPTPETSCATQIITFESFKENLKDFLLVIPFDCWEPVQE

B1: Hu23F4-18 (antibody, V domains shown)
VH: EVQLVQSGAEVKKPGATVKISCKVSDYTLTSHYLHWVQQAPGKGLEWIGWIFPGDDKTKYNEKFKGRATLTSDTSTDTAYMELSSLRSEDTAVYYCARGTKYLNWNFDVWGQGTTVTVSS
VL: DIQLTQSPSFLSASVGDRVTITCKANQNVGTTLAWYQQKPGKAPKALIYSASYRYSGVPSRFSGSGSGTEFTLTISSLQPEDFATYYCHQYTTYPLTFGGGTKVEIK
EC50 [1]: 0.0585 nM

B2: Hu23F4-16 (antibody, V domains shown)
VH: B1 VH with D26G, L29F
VL: B1 VL with A43S, S60D, E70D, Y87F
EC50 [1]: 0.0858 nM

B4: Hu23F4-19 (antibody, V domains shown)
VH: B1 VH
VL: B1 VL with S60D, E70D
EC50 [1]: 0.0787 nM

B9: Hu23F4-3 (antibody, V domains shown)
VH: B1 VH with D26G, L29F, I48M, A68V, L70I, S72A
VL: B1 VL with S60D, E70D
EC50 [1]: 0.0887 nM

B10: Hu23F4-5 (antibody, V domains shown)
VH: B1 VH with D26G, L29F, I48M, A68V, L70I
VL: B1 VL with A46L
EC50 [1]: 0.0585 nM

B11: Hu23F4-14 (antibody, V domains shown)
VH: B1 VH with D26G, L29F
VL: B1 VL
EC50 [1]: 0.0508 nM

B12: Hu23F4-20 (antibody, V domains shown)
VH: EVQLVQSGAEVKKPGASVKVSCKASGYTFTSHYLHWVRQAPGQGLEWMGWIFPGDDKTKYNEKFKGRVTMTRDTSISTAYMELSRLRSDDTAVYYCARGTKYLNWNFDVWGQGTTVTVSS
VL: B1 VL with A46L
EC50 [1]: 0.0993 nM

B13: Hu23F4-10 (antibody, V domains shown)
VH: B1 VH with D26G, L29F, I48M
VL: B1 VL
EC50 [1]: 0.116 nM

B15: Hu23F4-6 (antibody, V domains shown)
VH: B1 VH with D26G, L29F, I48M, A68V, L70I
VL: B1 VL
EC50 [1]: 0.0196 nM

B16: Hu23F4-13 (antibody, V domains shown)
VH: B1 VH with D26G, L29F
VL: B1 VL with A46L
EC50 [1]: 0.0852 nM

B18: Hu23F4-4 (antibody, V domains shown)
VH: B1 VH with D26G, L29F, I48M, A68V, L70I, S72A
VL: B1 VL with A43S, S60D, E70D, Y87F
EC50 [1]: 0.0623 nM

B19: Hu23F4-21 (antibody, V domains shown)
VH: B12 VH
VL: B1 VL
EC50 [1]: 0.151 nM

B22: Hu23F4-11 (antibody, V domains shown)
VH: B1 VH with D26G, L29F, I48M
VL: B1 VL with S60D, E70D
EC50 [1]: 0.0871 nM

B23: Hu23F4-1 (antibody, V domains shown)
VH: B1 VH with D26G, L29F, I48M, A68V, L70I, S72A
VL: B1 VL with A46L
EC50 [1]: 0.11 nM

B24: Hu23F4-8 (antibody, V domains shown)
VH: B1 VH with D26G, L29F, I48M, A68V, L70I
VL: B1 VL with A43S, S60D, E70D, Y87F
EC50 [1]: 0.0484 nM

B26: Hu23F4-22 (antibody, V domains shown)
VH: B12 VH
VL: B1 VL with S60D, E70D
EC50 [1]: 0.059 nM

B27: Hu23F4-12 (antibody, V domains shown)
VH: B1 VH with D26G, L29F, I48M
VL: B1 VL with A43S, S60D, E70D, Y87F
EC50 [1]: 0.226 nM

B28: Hu23F4-23 (antibody, V domains shown)
VH: B12 VH
VL: B1 VL with A43S, S60D, E70D, Y87F
EC50 [2]: 0.047 nM

B29: Hu23F4-15 (antibody, V domains shown)
VH: B1 VH with D26G, L29F
VL: B1 VL with S60D, E70D
EC50 [1]: 0.171 nM

B35: Hu23F4-2 (antibody, V domains shown)
VH: B1 VH with D26G, L29F, I48M, A68V, L70I, S72A
VL: B1 VL
EC50 [1]: 0.158 nM

B36: Hu23F4-17 (antibody, V domains shown)
VH: B1 VH
VL: B1 VL with A46L
EC50 [1]: 0.102 nM

B37: Hu23F4-7 (antibody, V domains shown)
VH: B1 VH with D26G, L29F, I48M, A68V, L70I
VL: B1 VL with S60D, E70D
EC50 [1]: 0.164 nM

B38: Hu23F4-9 (antibody, V domains shown)
VH: B1 VH with D26G, L29F, I48M
VL: B1 VL with A46L
EC50 [1]: 0.0516 nM

B41: 23F4 chimera (antibody, V domains shown)
VH: QVQLQQSGPELVKPGTSMKISCKTSDYTLTSHYLHWVKQRPGQGLEWIGWIFPGDDKTKYNEKFKGKATLTSDKTSNTAYMQLSSLTSEESAVYFCARGTKYLNWNFDVWGTGTTVTVSS
VL: DIVLTQPQKFLSTSVGDRVSVTCKANQNVGTTLAWYQQKPGQSPKALIYSASYRYSGVPDRFTGSGSGTDFTLTISNVQSEDLAEYFCHQYTTYPLTFGGGTKLEIK
EC50 [1]: 0.081 nM and 0.0923 nM
EC50 [2]: 0.092 nM and 0.0881 nM

More lines, now with the values ahead:

EC50 [2]: 0.0624 nM
B3: Hu23F4-35 (antibody, V domains shown)
VH: B12 VH with M48I, V68A, M70L, R72S
VL: B1 VL with A43S, S60D, E70D, Y87F

EC50 [2]: 0.0384 nM
B5: Hu23F4-36 (antibody, V domains shown)
VH: B12 VH with G26D, F29L, M48I, V68A, M70L, R72S
VL: B1 VL with A46L

EC50 [2]: 0.0954 nM
B6: Hu23F4-33 (antibody, V domains shown)
VH: B12 VH with M48I, V68A, M70L, R72S
VL: B1 VL

EC50 [2]: 0.101 nM
B7: Hu23F4-28 (antibody, V domains shown)
VH: B12 VH with M70L, R72S
VL: B1 VL with A46L

EC50 [2]: 0.0411 nM
B8: Hu23F4-30 (antibody, V domains shown)
VH: B12 VH with M70L, R72S
VL: B1 VL with S60D, E70D

EC50 [2]: 0.0348 nM
B14: Hu23F4-26 (antibody, V domains shown)
VH: B12 VH with R72S
VL: B1 VL with S60D, E70D

EC50 [2]: 0.0384 nM
B17: Hu23F4-27 (antibody, V domains shown)
VH: B12 VH with R72S
VL: B1 VL with A43S, S60D, E70D, Y87F

EC50 [2]: 0.0873 nM
B20: Hu23F4-32 (antibody, V domains shown)
VH: B12 VH with M48I, V68A, M70L, R72S
VL: B1 VL with A46L

EC50 [2]: 0.136 nM
B21: Hu23F4-38 (antibody, V domains shown)
VH: B12 VH with G26D, F29L, M48I, V68A, M70L, R72S
VL: B1 VL with S60D, E70D

EC50 [2]: 0.0268 nM
B25: Hu23F4-25 (antibody, V domains shown)
VH: B12 VH with R72S
VL: B1 VL

EC50 [2]: 0.0424 nM
B30: Hu23F4-31 (antibody, V domains shown)
VH: B12 VH with M70L, R72S
VL: B1 VL with A43S, S60D, E70D, Y87F

EC50 [2]: 0.0977 nM
B31: Hu23F4-34 (antibody, V domains shown)
VH: B12 VH with M48I, V68A, M70L, R72S
VL: B1 VL with S60D, E70D

EC50 [2]: 0.0907 nM
B32: Hu23F4-24 (antibody, V domains shown)
VH: B12 VH with R72S
VL: B1 VL with A46L

EC50 [2]: 0.127 nM
B33: Hu23F4-37 (antibody, V domains shown)
VH: B12 VH with G26D, F29L, M48I, V68A, M70L, R72S
VL: B1 VL

EC50 [2]: 0.0736 nM
B34: Hu23F4-29 (antibody, V domains shown)
VH: B12 VH with M70L, R72S
VL: B1 VL

EC50 [3]: 3.52 nM
B39: Hu50C5-13 (antibody, V domains shown)
VH: EVQLVQSGAEVKKPGSSVKVSCKASGYIFSPYSIHWVRQAPGQGLEWIGYINPSTGYIEYNQHFKDRVTITADKSTSTAYMELRSLRSEDTAVYYCARGGDYEGYFDYWGQGTTVTVSS
VL: DIQMTQSPSSLSASVGDRVTITCRLNENIYSFLAWYQQKPGKAPKLLVYNAETLAEDVPSRFSGSGSGTDFTLTISSLQPEDFATYYCQQHYGTPYTFGGGTKVEIK

EC50 [3]: 2.19 nM
B40: Hu50C5-2 (antibody, V domains shown)
VH: B39 VH with Y27G, I28T, I48M
VL: B39 VL with D57G
